From publication doi:10.1101/2020.06.08.118984 (bioRxiv, 2020)

Target: the molecule itself
Assay: crystal structure

B1: mouse TBPL2 core domain (TBPL2^C) (domain or fragment)
chain: SGIVPQLQNVVSTANLACKLDLRKIALNAKNTEYNPKRFAAVIMRIREPRTTALIFSSGKVVCTGAKSEEESRLAARKYARVVQKLGFPVRFFNFKIQNMVGSCDVKFPIRLEILALTHRQFSSSYEPELFPGLIYKMVKPQVVLLIFASGKVVLTGAKERSEIYEAFENMYPILESFKK
With B1 the “stoichiometry N” value was 2.
